According to article PMC13579936, “Walking the tightrope: Balancing opposing cooperativities in dynein assembly” (The Journal of Biological Chemistry, 2026):
Blank lines part the entries; values can stand above or below the binder they belong to.

B1: D. melanogaster dynein light chain LC8 (homodimer) (natural protein)
chain: MSDRKAVIKNADMSEEMQQDAVDCATQALEKYNIEKDIAAYIKKEFDKKYNPTWHCIVGRNFGSYVTHETRHFIYFYLGQVAILLFKSG
notes: dynein light chain LC8, D. melanogaster; homodimer; source: purity verified by SDS-PAGE and size-exclusion chromatography
B3: D. melanogaster dynein light chain Tctex1 (homodimer) (natural protein)
chain: MDDSREESQFIVDDVSKTIKEAIETTIGGNAYQHDKVNNWTGQVVENCLTVLTKEQKPYKYIVTAMIMQKNGAGLHTASSCYWNNDTDGSCTVRWENKTMYCIVSVFGLAV
notes: dynein light chain Tctex1, D. melanogaster; homodimer; source: purity verified by SDS-PAGE and size-exclusion chromatography

Key:
Assay in all cases: ITC; VP-ITC, 25 °C; 50 mM sodium phosphate, 50 mM sodium chloride, 1 mM sodium azide, pH 7.5; 39 isotherms of eight experiment types (IC in cell or in syringe, two- and three-protein titrations, dissociation; 27 from ref. 8, 12 new) fitted globally to a seven-state model by hierarchical Bayesian inference
[1] = molecular target: T1, TII: Tctex1 homodimer with two IC chains bound (D. melanogaster, UniProt Q94524 1-111; Q24246 84-143); settings: both partners purified
T1 construct: dynein light chain Tctex1, D. melanogaster; as the chain of m3; cytoplasmic dynein intermediate chain, D. melanogaster, construct ICTL; as the chain of m1; source: formed from the purified proteins m1 and m3 in the ITC samples; copies: 2 + 2
T1 sequence 1: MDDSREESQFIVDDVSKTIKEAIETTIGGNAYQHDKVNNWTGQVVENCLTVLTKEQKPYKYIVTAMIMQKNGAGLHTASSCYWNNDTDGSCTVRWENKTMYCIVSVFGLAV
T1 sequence 2: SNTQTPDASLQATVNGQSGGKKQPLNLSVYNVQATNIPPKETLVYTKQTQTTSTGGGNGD

[2] = molecular target: T2, TI: Tctex1 homodimer with one IC chain bound (half-bound) (D. melanogaster, UniProt Q94524 1-111; Q24246 84-143); settings: both partners purified
T2 construct: dynein light chain Tctex1, D. melanogaster; as the chain of m3; cytoplasmic dynein intermediate chain, D. melanogaster, construct ICTL; as the chain of m1; source: formed from the purified proteins m1 and m3 in the ITC samples; copies: 2 + 1
T2 sequence 1: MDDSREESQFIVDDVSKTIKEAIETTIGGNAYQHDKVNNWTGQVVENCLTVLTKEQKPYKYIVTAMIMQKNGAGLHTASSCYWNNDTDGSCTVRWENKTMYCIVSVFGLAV
T2 sequence 2: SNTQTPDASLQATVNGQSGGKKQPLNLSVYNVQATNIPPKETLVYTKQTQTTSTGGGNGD

[3] = molecular target: B1; settings: both partners purified
[4] = molecular target: B3; settings: both partners purified
[5] = molecular target: TILI: one IC chain with a half-bound Tctex1 homodimer and a half-bound LC8 homodimer (D. melanogaster) (UniProt Q94524)
[6] = molecular target: T3, LI: LC8 homodimer with one IC chain bound (half-bound) (D. melanogaster, UniProt Q24117 1-89; Q24246 84-143); settings: both partners purified
T3 construct: dynein light chain LC8, D. melanogaster; as the chain of m2; cytoplasmic dynein intermediate chain, D. melanogaster, construct ICTL; as the chain of m1; source: formed from the purified proteins m1 and m2 in the ITC samples; copies: 2 + 1

[7] = molecular target: T4, LII: LC8 homodimer with two IC chains bound (D. melanogaster, UniProt Q24117 1-89; Q24246 84-143); settings: both partners purified
T4 construct: dynein light chain LC8, D. melanogaster; as the chain of m2; cytoplasmic dynein intermediate chain, D. melanogaster, construct ICTL; as the chain of m1; source: formed from the purified proteins m1 and m2 in the ITC samples; copies: 2 + 2

Binder: B1
- dH [1]: -25.8 kcal/mol
- dH [2]: -12.7 kcal/mol

- dH, first IC on the LC8 dimer (state LI) [3]: -14.8 kcal/mol
- dH, second IC on the LC8 dimer (LI to LII) [3]: -15.1 kcal/mol
- dH, first IC on the Tctex1 dimer (state TI) [4]: -6.76 kcal/mol
- dH, second IC on the Tctex1 dimer (TI to TII) [4]: -4.97 kcal/mol
- dH [5]: -18.1 kcal/mol
B2: D. melanogaster dynein intermediate chain ICTL (domain or fragment, UniProt Q24246 84-143, looked up)
chain: SNTQTPDASLQATVNGQSGGKKQPLNLSVYNVQATNIPPKETLVYTKQTQTTSTGGGNGD
notes: cytoplasmic dynein intermediate chain (IC), D. melanogaster; source: purity verified by SDS-PAGE and size-exclusion chromatography

Binder: B3
- dH [6]: -4.7 kcal/mol
- dH [7]: -7.72 kcal/mol
